According to the DeepSol protein solubility set:

Test: soluble on expression in E. coli; label from the status in PepcDB or PDB records

Sequence	soluble on expression in E. coli
MNEFEIGLMSYLGREKLEKLGKVKVGIAGAGGLGSNCALHLVRSGFKNLKIVDFDVVEPSNLNRQFFFLDQLGRPKVLALKENLARINPDVMIEAIQQKVDRNNAKQLFDDCDAVVEAFDKVECKTMMAEAFASSGKFFVCASGLAGWGNSDEIRIRKVHDRFYIVGDFVTGVKEGIPPISPRVNIAAAKQADLILSFFLDDADNTVNVNCQEGLEHHHHHH	soluble
MNEFSILCRVLGSLFYRQPQDPLLVPLFTLIREGKLAANWPLEQDDMLARLQKSCDITQISTDYNALFVGEECAVAPYRSAWVEGAEESEVRAFLTSRGMPLADTPADHIGTLLLAASWLEDQSAEDESEALETLFADYLLPWCNTFLGKVEAHAVTPFWRTLAPLTRDAIGAMWDELQEEDEE	not soluble
MNEKHPGPLVVSGKLSDGERMKSESNFLRGTIAEDLNNGLTGGFSGDNFLLIRFHGMYQQDDRDIRAERAEQKLEPRHAMMLRCRLPGGIITPQQWLGIDKFAADNTLYGSIRITNRQTFQFHGILKGNVKPAHQLLNELGLDALATANDVNRNVLCTSNPVESALHQEAYEWAKKISEHLLPRTRAYAEIWLDAEKVATTDEEPILGATYLPRKFKTTVVIPPQNDVDLHANDLNFVAVADKGKLIGFNVLVGGGLSIAHGDKNTYPRKASEFGYIPLKHTLAIAEAVVTTQRDWGNRTDRKNAKTKYTLERVGVETFKAEVEKRAGVSFSAIKPYQFIGRGDRIGWVKGVDKKWHLTLFVENGRLLDYPGRSLKTGVAEIAKIHQGDFRLTANQNLIVAGVPEKDKARIEALAREHGLMDDNVTSQRENSMACVSFPTCPLAMAEAERFLPEFVTRVEGILQQHGLADEHIVLRVTGCPNGCGRALLAEVGLVGKAVGRYNLHLGGNREGTRIPRMYRENITADEILLITDQLVGRWAKERHVDEGFGDFVIRAGVIAPVIDSARDFYDVQEAM	not soluble
MNELQFQQAAGISAGLSARWFPHIDAAMSEFGITAPLDQAMFIAQTGHESAGFTVLRESFNYSVEALKKTFGKRLTPYQCEMLGRIDGRQVAHQPQIANLVYGGRMGNKDAGDGWKYRGRGLIQITGLENYTRCGVALKLDLVANPGQLELERHAARSAAWFFVTKGCLKYSGDLVRVTQIINGGQNGFGDRRERFEKAKSVLV	not soluble
MNEYKKEIKISVRNLVEFVLRTGDIDSSFTGSSRAVEGTRLHKKIQKTQGKEYSPEVFLKTTVEFDDFFLTVEGRADGVINEDGCFIIDEIKTTTAPLELIDEFYNPLHWAQAKCYAYIHALNENLEKIKIRLTYCHLETEEIKYLVSEFDFAELSRFFEELVEKYYVWAKLACDWQVKRDCSIKVLEFPFEKYRKGQRKLAVAVYKTVTEGKKLYVKAPTGIGKTISTLFPAVKAIGEGHASKIFYLTAKTVTGGVAKEAFAKMRQKGLLFKTVTLTAKEKICFMEKAVCKPEKCEYAKGHFDRVNEAIMDILTNEDEIKREVIEEYAKAHRVCPFELALDLTIWADAVICDYNYVFDPRVYLKRFFSDAGGDYIFLVDEAHNLVDRAREMFSAQLSKKSFLELKKAMKEESPKISKTLQKLNTFMLGMKKLCGDNDYFVSKEEQSEIYLLLRRLIGECEEYLTDRAKNGIENEDLLQLYFDALMYVRIAEFYDDRYVTFVEKSDNDVRIKLFCIDPSHLLSEALKRGKAAVFFSATLLPLSYFKEVLGGGPDDYTMCLDSPFEVNNRCLMIADRISTRYQDRGKSCDEVVQCIKSIVCAKKGNYIAFFPSYQYMNMIYELFEKECGDIKLYVQSSSMTEKEREDFLERFKADPQETVLGFCVLGGIFSEGIDLRDDRLIGAIIVGVGLPQICIERDIIRDYYQNKNRLGFEYSYMYPGMNKVMQAAGRVIRSENDKGVILLIDDRFTNPSYLALFPNEWFPYIRVTGNNISEHVKKFWSRHGA	soluble
MNFLKKEPFKIFSMIYLLLDTITNRAGTERAVINLANNLHANGHRVSLVSVCTKEGEPSFQVEKGIEVHHLGIRLYGNALARKTVYFKAYRRIKALYKKREPVLLIGTNIFINTILSQISNRGRIFTIGCEHISYDIARPITKRIRGFLYSGLDAVVALTKRDQQSFEAILRGRSKAYVIPNQVSFTTVQRDATTHKQMLAIGRLTYQKGFEFMIEDASRVLRERPDWKLIIVGDGENESMLRKEIASRNMESQIEIHPSTPEIRKYYESSAIYLMTSRFEGLPMVLLEAEAYALPIISYDCPTGPRELIENGRNGFLVPMEAHEDFADKLRLLMDDETLRKKMGQESELMVKSYSPANIYECWKKLFVEIGYMN	soluble
MNHMKKNILFDGLRSVARIGETAFVAARAGIKYATEKPSNAKLMRETFESLGSTYIKLGQFIASTPSLFPREYVEEFQGCLDQTPTLPFSYIQEVLAEEFEGRDLNQIFASIDETPLASASIAQVHAARLTTGEDVVIKVQKPGVETILYTDLNVVHWATKMLEKAIPKVKFASLSEIVEEIKIRMVREVDFIEEAQNLDDFVEYLKITNNQAATAPKVYHQFSTRRILTMERLYGVSLTDFDIVKKFAKDPSQVLITAMNTWFGSLMLCKSFHADLHAGNLMLLEDGRIGFIDFGIVGQLNPQVWTACLAFMDALQKTDYTAMAENMLKMGMTKTQIDTQVLAQDLERLFSGVLLADPQEILASKPSDLNDIMLDMVAVGERHGIKFPRDFALLFKQMLYFDRFMRVLAPYTDIYADQRLKMVQTIEPQSLLKHLEHHHHHH	soluble
MNHVSHTGSYYAASANDKVQRSKLTEDITADICVVGSGFTGLSSALHLAEKGFKVVVVEGSRIGFGASGRNGGQLVNSYSRDMDFIERNYGKHVSTEMGQMAFEGSRIIKRLINDYDIKCDLRPGGVFAACNSKQLDEMAEKQKLWAKHGYHETELLSASDIQNHVGTERYVGGLLDKAGGHIHPLNLALGEAAAFEKLGGIIYEDSIVVDIVHGKKAVIKTDSGSVTADFVVVAGNAYLEGLLPKQQKQSMPCGTQIITTEVLPEAMQKQLLPTDVCVEDCNYLLDYFRLSGDGRLIYGGGTTYGAREPSKIESIIIPKMLKTFPQLKDVKIDYAWTGNFLLTLMRLPQFGRINDNVYYAQGYSGHGVTSTHLAGKVIADAITGQAERFDVFAGLPQYPFPGGRLFKTPYTAMGAWYYQMRDKLGILEHHHHHH	soluble
MNIAAVAGSPTGDMIEIGQHLRVRHFCYQTAKQRGDIGKIIRIAFAEVKFRCDSQIPLQRQTATNVADMFMHAKNFLHYNDHWQWAIALLWSGMVSRHVIPL	not soluble
MNIAVSKPPLTIRLCGPRGFCAGVDRAIQIVVLALKAYGAPVYVRHEIVHNRYVVEGLEAKGAIFVEELHEIPAEHREQPVVFSAHGVPKSVPEDAQARNLFYLDATCPLVSKVHKQAMRHQRLGRHVVLIGHAGHPEVIGTMGQLPEGTVSLVETVEDAGVYEPVDRENLGFVTQTTLSVDDTAGVIARLQERFPAIQAPAADSICYATTNRQDAVKQAAPGCDLFIVVGAPNSSNSKRLVEVALRAGAKHSVLVQRASEIDWNEIGDIRTVGLSAGASAPEVIVDEIIEAFKARFDTTLDLAVTVEETEHFLVNRELRSIELTTDDMAFVNGNASNALPPKATAGILEHHHHHH	not soluble
MNIMEIEKTNRMNALFEFYAALLTDKQMNYIELYYADDYSLAEIADEFGVSRQAVYDNIKRTEKILETYEMKLHMYSDYVVRSEIFDDMIAHYPHDEYLQEKISILTSIDNRE	soluble
MNINKSKKRDSAVDIDNHDPFSVLLMGVDERDGDKGRADSLIYMTVNPKTKTTEMVSIPRDTYTEIIGKGKMDKINHSYAFGGVQMTVDTVENFLDVPVDYFIKVNMESFKDVVDTLGGITVNSTFAFNYDGYSFGKGEITLNGKEALAYTRMRKEDPNGDFGRQNRQRQVIEGIINKGANISSITKFGDMFKVIENNVKTNLTFDDMWDIQSGYKEARSKVIQHELKGDGTKINGIYYYKADESSLSDITAELKESLNKLEHHHHHH	soluble
MNIRDYIRENEARFLEDLFALIRIPSVSAKSEHKPDMQRCAEHWRDHLLQVGAQKAEVFQTPGNPVVYAERIMDPKAKTILVYAHYDVMPPEPLELWKSEPFEPVIRDGHIWARGADDDKGQGMIQVKGFETALALGLVQCNVKFLFEGEEEIGSTNLEAFCRAHKEMLSADVIIVSDTSMVSAETPSLTTGLRGLAYWEMEVTGPNRDLHSGHFGGAVANPINELCKLIAGIVDENGRITIPHFYDDVVPLSDEERQMIAQVPFSEEKYCQALDIDTVFGEAGYSTLERNSCRPSFDVCGIWGGYTGEGAKTVLPSKAYAKVSSRLVANQDHEKISQMFIDYIRSVAPKHIKVKVTPLHGGEAYLCPIDLPAYKAAEEACTIAFGKRPLAVRRGGSIPIIATFEKVLGLKTVLMGFGLESNAIHSPNENMPLDIFRKGIESVAEFYRIYK	not soluble
MNIYKLIGRNLEITDAIRDYVEKKLARLDRYQDGELMAKVVLSLAGSPHVEKKARAEIQVDLPGGLVRVEEEDADLYAAIDRAVDRLETQVKRFRERRYVGKRHSYQGPPPPEVRDLEALRKPEEEEGPRIVRVKRFEMKPMDPEEAAFQMEALGHSFFVFRNAKTDEINVIYRRKDGNYGLIEPA	soluble
MNKAKPKVVWASVYEGSAYIAPKDSYVDNMIKMAGGINACASIDSNEGRVSIEQLHEVAKDADIFVYSSSSDYAPNLDSIKSSAPVLADLDVVKNGNLWVFAPDYYQSVDKTDELIVDLVEMFHPGTTGEKIKHYINYDKLEHHHHHH	soluble
MNKAPHETRVVVGMSGGVDSSVAALLLKEQGYDVIGIFMKNWDDTDENGVCTATEDYEDVVRVCNQIGIPYYAVNFEKQYWDKVFTYFLNEYKAGRTPNPDVMCNKEIKFKAFLEHAMSIGADYIATGHYARVEFRDGEYKMLRGADPNKDQTYFLNQLGQAQLSKVMFPIGHLQKADVRRIAKEAGLATAGKKDSTGICFIGERDFKEFLSHYLPAQPGVMKTLDGEVKGRHDGVMYYTIGQRHGLGIGGSGEPWFVVGKDVRENVLYVAQGFENEYLYSTSLKAVDVNWVSDRKPEAPFRCTAKFRYRQPDVGVTVHPLADGGVEVVFDAPARAVTPGQAVVFYNGEECLGGGTIDEVFRNGEKLWYVG	not soluble
MNKDNSPSESLVNSSASEDKTVKTSMSANNPSINDSSLPERLPAMCGCDSQNREESANSGVQLSDHANESLSKQADDVIYEGGLEDKDSVFRAIIEDDDACEVLDDGIDNCEVEIPVAIECHLCNEMMNLCLRRTRYRGQAREYPAYRCNRKGCQTFRSIRKVFGNCMSDVDNSGDATTRTMIYHPPHKVRKTSPGEFSDDDSKEFVVQRVYIPKIDNRNKDQSVKSLSVTDRMRKANQDRAIVFSEFADQLRRDIVANKRVRIKKHVEEDQQGTLFYISKELNPQEVIELQDVIIKTLISMRKIPPPMTMDDLPLFANCPYSKKAVDAGEFDMSETEERPRPKLPKTIYQNTRTHSDSLTERSRHFTYDELKHSMEANAEGPSTCRIGISRSERNSESLQWIGLKTYEDSTDGFAKSVNSEGERQQGINGQIDDEVFEDESRFKPVASMQDVMRTLSTPSTLRPPVSPLMKSFSSMDSSNFKNPINAHPPMFFSDPHFLINNNQFNSPTPFYALNSYFPSFPMDSSQVYQNATDEHFTPSGASEVVCTEQTPGHHFTYIHPDSGVRLTDPSAFLTSFVPSPITKVPPINFNDETSRSRSASAPSTSVYNTGEFERSHKKYENEEDEKLMDNQNFSDEQPKE	not soluble
MNKDVSLGQPIVRYEDGKLFNTTDQYVTEFPLTIMVNGEEFATVICSPTNLEELVIGFLASEGAILKRDELKSVLIDDSKGFAHVELNKDLGDRFQYSTKRMIASCCGKSREFYFQNDAAIAKTSMSKITLTPIQIINMMTRLQSASHIYQETGGLHNAAISDGLTFFVHRQDIGRHNALDKLYGFCIQRHITVRDKVLIFSGRISSEILIKAAKIGVGVILSKSAPTTLAVTLANDLNITAVGFIRNGGFNIYSHPERIIDSEQ	not soluble
